Laboratory results published in paper PMC4522616 (Emerging Microbes & Infections, 2015).

What was measured:
[1] = target: gp120 of HIV-1 BaL (clade B) (HIV-1 group M subtype B, isolate BaL …, UniProt Q2MKA8, strain); experiment: ELISA
[2] = target: gp120 of HIV-1 96ZM651 (clade C) (HIV-1 group M subtype C, isolate 96ZM651, strain); experiment: ELISA
[3] = target: gp120 of HIV-1 93MW965 (clade C) (HIV-1 group M subtype C, isolate …, strain); experiment: BLI
[4] = target: gp120 of HIV-1 JR-FL (clade B) (HIV-1); experiment: BLI
[5] = target: T1, C4 peptide VGKAMYAPPIRGQIR (gp120 residues 430 to 444, HXB2 numbering) (HIV-1); experiment: crystal structure
T1 chain: VGKAMYAPPIRGQIR

[6] = target: JR-FL Env on pseudovirions (HIV-1 JR-FL (clade B), UniProt Q75760, strain); experiment: virus capture assay

B1: rabbit monoclonal antibody R53 (antibody, V domains shown)
VH: QSLEESGGGPVKPGGTLTLTCKASGIDFSSFYYMCWVRQAPGKGLEWIACIVTDITGESYYATWAKGRFAISKTSSTTVTLQMTSLTAADTATYFCARGDTYGYGDTVYALNLWGPGTLVTVSS
VL: GPVLTQTPPSASEPVGGTVTIKCQASQAIDEYLGWYQQKPGQRPKLLMYYASTLASGVPSRFKGSGSGTQFTLTISDLECADAATYYCQNYYVGSSTNYAFTFGGGTEVVVK
[1]
  binding result: binds
[2]
  binding result: binds
[3]
  Kd: 3.98 nM
  koff: 0.00121 s⁻¹
  kon: 304000 M⁻¹ s⁻¹
[4]
  Kd: 1.96 nM
  koff: 0.000309 s⁻¹
  kon: 157000 M⁻¹ s⁻¹

B2: R53 antigen-binding fragment (Fab) (Fab, V domains shown)
VH: B1 VH
VL: B1 VL
[5]
  binding result: binds

B3: rabbit monoclonal antibody R56 (antibody, V domains shown)
VH: QSLEESGGDLVQPGASLTLTCKASGFSFGNNYDMCWVRQAPGKGLEWIGCIETGSSDSAAYATWAKGRFTISKTSSTTVTLQMTSLTAADTATYFCARNFDLWGPGTLVIVSS
VL: QVLTQTPSSVSTAVGSAVTINCQSSQNVYSNNNLAWFQQKPGQPPRLLIYDASKLASGVPSRFKGSGSGTQFTFTISDVQCDDAATFYCLGGYDCSSGDCAAFGGGTEVVVR
[6]
  binding result: binds
